From the supplement of paper PMC10065799, “High-throughput profiling of sequence recognition by tyrosine kinases and SH2 domains using bacterial peptide display” (eLife, 2023)

What follows are sequences tested against FGFR3 (UniProt P22607) (assay: phosphorylation enrichment, bacterial display (enrichment ratio); higher = better substrate or ligand; peptides without Tyr show the background).
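Also: 11-residue human phosphosite peptides and single-mutation variants displayed on the E. coli surface, counted by deep sequencing, each peptide's frequency after selection divided by its frequency in the unselected input library; frequency after pTyr selection over input frequency; kinase dosed for 20-30% of maximal phosphorylation in three min.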

FGFR3, sequence (P22607 whole entry, looked up): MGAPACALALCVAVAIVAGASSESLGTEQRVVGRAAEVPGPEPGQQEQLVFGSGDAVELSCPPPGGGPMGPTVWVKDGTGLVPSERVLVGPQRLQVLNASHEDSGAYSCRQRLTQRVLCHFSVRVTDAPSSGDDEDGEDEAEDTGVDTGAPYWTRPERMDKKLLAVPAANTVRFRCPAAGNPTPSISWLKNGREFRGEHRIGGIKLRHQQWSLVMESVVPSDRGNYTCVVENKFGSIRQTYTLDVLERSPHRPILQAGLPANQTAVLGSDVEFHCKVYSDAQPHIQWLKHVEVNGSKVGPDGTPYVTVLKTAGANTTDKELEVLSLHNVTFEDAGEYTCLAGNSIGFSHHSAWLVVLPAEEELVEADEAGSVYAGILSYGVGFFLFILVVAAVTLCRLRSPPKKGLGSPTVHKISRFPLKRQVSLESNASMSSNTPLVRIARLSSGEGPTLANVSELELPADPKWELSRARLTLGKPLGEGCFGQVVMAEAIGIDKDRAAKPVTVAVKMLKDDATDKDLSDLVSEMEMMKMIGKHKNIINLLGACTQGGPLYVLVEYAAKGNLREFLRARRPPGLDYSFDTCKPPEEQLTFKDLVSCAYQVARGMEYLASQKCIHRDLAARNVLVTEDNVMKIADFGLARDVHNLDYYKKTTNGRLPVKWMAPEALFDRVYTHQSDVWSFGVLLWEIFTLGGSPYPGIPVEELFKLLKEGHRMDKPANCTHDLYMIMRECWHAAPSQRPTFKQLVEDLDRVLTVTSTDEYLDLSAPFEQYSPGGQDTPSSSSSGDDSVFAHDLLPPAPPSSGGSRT

For EKKKYYDTKIE [CASP5_Y104], which phosphorylation enrichment is on record?
Its phosphorylation enrichment is 0.637.

How did the phosphorylation enrichment turn out when FADIAYNYRQG [PAH_Y166_H170Q] was run?
The phosphorylation enrichment was 0.728.

Which phosphorylation enrichment does the source give for PQDVTYARLHS [LILRB4_Y412_Q414R] here?
Its phosphorylation enrichment is 0.603.

Which phosphorylation enrichment does the source give for AIGCEYSEINI [SIGLEC12_Y588_Y586C] here?
Its phosphorylation enrichment is 2.99.

For HFIKLYEEKTG [PARP1_Y618_M615I], which phosphorylation enrichment is on record?
Its phosphorylation enrichment is 0.807.

For TENAGYFFRIS, which phosphorylation enrichment is on record?
Its phosphorylation enrichment is 0.868.

KKYFSYAWPFY [BRDT_Y291_H288Y] was tested. Which phosphorylation enrichment did it give?
The phosphorylation enrichment was 0.621.

SSTASYFKAPG [RFX2_Y108_E110K] was tested. Which phosphorylation enrichment did it give?
The phosphorylation enrichment was 0.474.

For LSNFNYEQRGA [API5_Y497_G493S], which phosphorylation enrichment is on record?
Its phosphorylation enrichment is 1.02.

How did the phosphorylation enrichment turn out when DAMQTYNGNDE [TSPAN7_Y131] was run?
Its phosphorylation enrichment is 0.837.

How did the phosphorylation enrichment turn out when LPSKDYAEVRR [HP_Y272_G276R] was run?
Its phosphorylation enrichment is 0.865.

Which phosphorylation enrichment does the source give for NTGVFYDLFGG [PTPN11_Y63_D61V_YF] here?
Its phosphorylation enrichment is 0.638.

For NFDRVYIYHLR [MYOF_Y1137], which phosphorylation enrichment is on record?
The phosphorylation enrichment was 0.755.

With GIVEDYRPPFC [ACVRL1_Y421_Y426C] as the sequence, how does the phosphorylation enrichment read?
Its phosphorylation enrichment is 0.599.

How did the phosphorylation enrichment turn out when ISIFHCAKGQP [MPZ_Y82_Y82C] was run?
The phosphorylation enrichment was 1.02.

With NFGTNYRVGSS [CPO_Y278_K273N_YF] as the sequence, how does the phosphorylation enrichment read?
The phosphorylation enrichment was 0.424.

How did the phosphorylation enrichment turn out when GACGGYCSVLG [RAB18_Y202] was run?
Its phosphorylation enrichment is 0.401.

For PLFKIYVAELI [MRPL28_Y230], which phosphorylation enrichment is on record?
Its phosphorylation enrichment is 1.54.

DKATEYIQYVR [MAX_Y70_M74V] was tested. Which phosphorylation enrichment did it give?
Its phosphorylation enrichment is 0.507.

How did the phosphorylation enrichment turn out when DPHKIFEFVNS [IRF3_Y107_Y107F] was run?
The phosphorylation enrichment was 0.596.

For LERYIYNPEEF [HLA-DPB1_Y59_R61P], which phosphorylation enrichment is on record?
The phosphorylation enrichment was 0.902.

RVLKLYGCSPS [ASTL_Y279] was tested. Which phosphorylation enrichment did it give?
Its phosphorylation enrichment is 0.608.

These sequences were tested on Fer (mouse) in the same assay as above.

For EKKKYYDTKIE [CASP5_Y104], which phosphorylation enrichment is on record?
Its phosphorylation enrichment is 0.381.

For FADIAYNYRQG [PAH_Y166_H170Q], which phosphorylation enrichment is on record?
Its phosphorylation enrichment is 0.471.

With PQDVTYARLHS [LILRB4_Y412_Q414R] as the sequence, how does the phosphorylation enrichment read?
The phosphorylation enrichment was 0.786.

For AIGCEYSEINI [SIGLEC12_Y588_Y586C], which phosphorylation enrichment is on record?
The phosphorylation enrichment was 5.32.

How did the phosphorylation enrichment turn out when HFIKLYEEKTG [PARP1_Y618_M615I] was run?
The phosphorylation enrichment was 0.798.

TENAGYFFRIS was tested. Which phosphorylation enrichment did it give?
The phosphorylation enrichment was 0.487.

KKYFSYAWPFY [BRDT_Y291_H288Y] was tested. Which phosphorylation enrichment did it give?
The phosphorylation enrichment was 0.395.

SSTASYFKAPG [RFX2_Y108_E110K] was tested. Which phosphorylation enrichment did it give?
Its phosphorylation enrichment is 0.339.

For LSNFNYEQRGA [API5_Y497_G493S], which phosphorylation enrichment is on record?
Its phosphorylation enrichment is 0.651.

Which phosphorylation enrichment does the source give for DAMQTYNGNDE [TSPAN7_Y131] here?
The phosphorylation enrichment was 0.531.

Which phosphorylation enrichment does the source give for LPSKDYAEVRR [HP_Y272_G276R] here?
The phosphorylation enrichment was 0.419.

For NTGVFYDLFGG [PTPN11_Y63_D61V_YF], which phosphorylation enrichment is on record?
The phosphorylation enrichment was 2.86.

NFDRVYIYHLR [MYOF_Y1137] was tested. Which phosphorylation enrichment did it give?
The phosphorylation enrichment was 0.612.

Which phosphorylation enrichment does the source give for GIVEDYRPPFC [ACVRL1_Y421_Y426C] here?
The phosphorylation enrichment was 0.437.

With ISIFHCAKGQP [MPZ_Y82_Y82C] as the sequence, how does the phosphorylation enrichment read?
Its phosphorylation enrichment is 0.643.

For NFGTNYRVGSS [CPO_Y278_K273N_YF], which phosphorylation enrichment is on record?
The phosphorylation enrichment was 0.429.

How did the phosphorylation enrichment turn out when GACGGYCSVLG [RAB18_Y202] was run?
Its phosphorylation enrichment is 0.441.

For PLFKIYVAELI [MRPL28_Y230], which phosphorylation enrichment is on record?
The phosphorylation enrichment was 0.978.

With DKATEYIQYVR [MAX_Y70_M74V] as the sequence, how does the phosphorylation enrichment read?
The phosphorylation enrichment was 0.43.

With DPHKIFEFVNS [IRF3_Y107_Y107F] as the sequence, how does the phosphorylation enrichment read?
The phosphorylation enrichment was 0.771.

LERYIYNPEEF [HLA-DPB1_Y59_R61P] was tested. Which phosphorylation enrichment did it give?
The phosphorylation enrichment was 0.85.

RVLKLYGCSPS [ASTL_Y279] was tested. Which phosphorylation enrichment did it give?
The phosphorylation enrichment was 0.981.

Each sequence was assayed against Fes (UniProt P07332) in the same assay as above.
Fes, sequence (P07332 whole entry, looked up): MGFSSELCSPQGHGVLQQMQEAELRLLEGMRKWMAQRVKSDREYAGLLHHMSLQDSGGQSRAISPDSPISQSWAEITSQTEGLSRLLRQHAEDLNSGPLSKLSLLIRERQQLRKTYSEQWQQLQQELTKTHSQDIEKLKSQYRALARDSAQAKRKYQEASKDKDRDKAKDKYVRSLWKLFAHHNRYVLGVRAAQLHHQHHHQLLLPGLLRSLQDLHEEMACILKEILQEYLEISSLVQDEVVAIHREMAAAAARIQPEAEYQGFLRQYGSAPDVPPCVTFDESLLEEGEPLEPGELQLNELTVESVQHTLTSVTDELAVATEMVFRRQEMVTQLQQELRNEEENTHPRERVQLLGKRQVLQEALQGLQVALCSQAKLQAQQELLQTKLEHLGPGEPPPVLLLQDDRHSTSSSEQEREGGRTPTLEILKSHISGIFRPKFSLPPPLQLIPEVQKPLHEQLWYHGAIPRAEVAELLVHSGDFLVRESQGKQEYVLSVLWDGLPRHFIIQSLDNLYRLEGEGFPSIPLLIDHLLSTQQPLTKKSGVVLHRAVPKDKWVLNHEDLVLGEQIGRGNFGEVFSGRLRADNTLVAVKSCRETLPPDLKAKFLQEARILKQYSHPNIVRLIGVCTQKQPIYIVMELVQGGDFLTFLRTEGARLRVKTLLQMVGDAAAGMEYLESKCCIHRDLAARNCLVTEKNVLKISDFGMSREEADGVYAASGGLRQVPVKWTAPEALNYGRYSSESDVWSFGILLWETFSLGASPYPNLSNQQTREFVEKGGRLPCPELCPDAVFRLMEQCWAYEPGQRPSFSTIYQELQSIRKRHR

For EKKKYYDTKIE [CASP5_Y104], which phosphorylation enrichment is on record?
The phosphorylation enrichment was 1.03.

With FADIAYNYRQG [PAH_Y166_H170Q] as the sequence, how does the phosphorylation enrichment read?
Its phosphorylation enrichment is 0.872.

PQDVTYARLHS [LILRB4_Y412_Q414R] was tested. Which phosphorylation enrichment did it give?
Its phosphorylation enrichment is 1.51.

How did the phosphorylation enrichment turn out when AIGCEYSEINI [SIGLEC12_Y588_Y586C] was run?
The phosphorylation enrichment was 1.27.

Which phosphorylation enrichment does the source give for HFIKLYEEKTG [PARP1_Y618_M615I] here?
The phosphorylation enrichment was 0.952.

Which phosphorylation enrichment does the source give for TENAGYFFRIS here?
Its phosphorylation enrichment is 1.42.

With KKYFSYAWPFY [BRDT_Y291_H288Y] as the sequence, how does the phosphorylation enrichment read?
Its phosphorylation enrichment is 1.03.

SSTASYFKAPG [RFX2_Y108_E110K] was tested. Which phosphorylation enrichment did it give?
Its phosphorylation enrichment is 0.619.

LSNFNYEQRGA [API5_Y497_G493S] was tested. Which phosphorylation enrichment did it give?
The phosphorylation enrichment was 1.51.

With DAMQTYNGNDE [TSPAN7_Y131] as the sequence, how does the phosphorylation enrichment read?
The phosphorylation enrichment was 1.11.

Which phosphorylation enrichment does the source give for LPSKDYAEVRR [HP_Y272_G276R] here?
Its phosphorylation enrichment is 0.832.

How did the phosphorylation enrichment turn out when NTGVFYDLFGG [PTPN11_Y63_D61V_YF] was run?
The phosphorylation enrichment was 1.12.

For NFDRVYIYHLR [MYOF_Y1137], which phosphorylation enrichment is on record?
The phosphorylation enrichment was 1.23.

For GIVEDYRPPFC [ACVRL1_Y421_Y426C], which phosphorylation enrichment is on record?
Its phosphorylation enrichment is 1.01.

How did the phosphorylation enrichment turn out when ISIFHCAKGQP [MPZ_Y82_Y82C] was run?
Its phosphorylation enrichment is 1.7.

For NFGTNYRVGSS [CPO_Y278_K273N_YF], which phosphorylation enrichment is on record?
Its phosphorylation enrichment is 0.716.

For GACGGYCSVLG [RAB18_Y202], which phosphorylation enrichment is on record?
The phosphorylation enrichment was 0.77.

For PLFKIYVAELI [MRPL28_Y230], which phosphorylation enrichment is on record?
The phosphorylation enrichment was 2.35.

DKATEYIQYVR [MAX_Y70_M74V] was tested. Which phosphorylation enrichment did it give?
Its phosphorylation enrichment is 0.976.

With DPHKIFEFVNS [IRF3_Y107_Y107F] as the sequence, how does the phosphorylation enrichment read?
The phosphorylation enrichment was 0.88.

For LERYIYNPEEF [HLA-DPB1_Y59_R61P], which phosphorylation enrichment is on record?
Its phosphorylation enrichment is 1.74.

RVLKLYGCSPS [ASTL_Y279] was tested. Which phosphorylation enrichment did it give?
Its phosphorylation enrichment is 0.943.

The sequences below were run against Fyn (UniProt P06241) in the same assay as above.
Fyn, sequence (P06241 whole entry, looked up): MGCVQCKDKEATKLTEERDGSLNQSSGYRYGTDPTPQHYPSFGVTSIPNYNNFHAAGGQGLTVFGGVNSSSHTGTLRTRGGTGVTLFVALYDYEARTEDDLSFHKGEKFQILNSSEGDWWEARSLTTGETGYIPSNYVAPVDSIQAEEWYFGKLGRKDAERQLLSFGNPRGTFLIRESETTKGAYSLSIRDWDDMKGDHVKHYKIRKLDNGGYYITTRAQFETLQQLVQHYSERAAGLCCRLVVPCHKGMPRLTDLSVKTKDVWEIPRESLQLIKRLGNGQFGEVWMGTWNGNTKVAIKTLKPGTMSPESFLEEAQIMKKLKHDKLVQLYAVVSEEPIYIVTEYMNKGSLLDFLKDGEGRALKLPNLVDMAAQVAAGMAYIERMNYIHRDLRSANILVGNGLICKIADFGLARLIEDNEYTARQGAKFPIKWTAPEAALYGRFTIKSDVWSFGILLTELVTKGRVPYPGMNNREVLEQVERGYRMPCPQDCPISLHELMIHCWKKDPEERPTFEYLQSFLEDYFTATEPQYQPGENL

With EKKKYYDTKIE [CASP5_Y104] as the sequence, how does the phosphorylation enrichment read?
The phosphorylation enrichment was 0.486.

How did the phosphorylation enrichment turn out when FADIAYNYRQG [PAH_Y166_H170Q] was run?
Its phosphorylation enrichment is 0.482.

How did the phosphorylation enrichment turn out when PQDVTYARLHS [LILRB4_Y412_Q414R] was run?
The phosphorylation enrichment was 1.91.

For AIGCEYSEINI [SIGLEC12_Y588_Y586C], which phosphorylation enrichment is on record?
Its phosphorylation enrichment is 1.79.

For HFIKLYEEKTG [PARP1_Y618_M615I], which phosphorylation enrichment is on record?
Its phosphorylation enrichment is 0.978.

How did the phosphorylation enrichment turn out when TENAGYFFRIS was run?
Its phosphorylation enrichment is 0.511.

With KKYFSYAWPFY [BRDT_Y291_H288Y] as the sequence, how does the phosphorylation enrichment read?
The phosphorylation enrichment was 0.383.

For SSTASYFKAPG [RFX2_Y108_E110K], which phosphorylation enrichment is on record?
The phosphorylation enrichment was 0.4.

LSNFNYEQRGA [API5_Y497_G493S] was tested. Which phosphorylation enrichment did it give?
The phosphorylation enrichment was 1.14.

For DAMQTYNGNDE [TSPAN7_Y131], which phosphorylation enrichment is on record?
Its phosphorylation enrichment is 0.55.

For LPSKDYAEVRR [HP_Y272_G276R], which phosphorylation enrichment is on record?
The phosphorylation enrichment was 0.559.

With NTGVFYDLFGG [PTPN11_Y63_D61V_YF] as the sequence, how does the phosphorylation enrichment read?
The phosphorylation enrichment was 3.21.

How did the phosphorylation enrichment turn out when NFDRVYIYHLR [MYOF_Y1137] was run?
Its phosphorylation enrichment is 0.858.

GIVEDYRPPFC [ACVRL1_Y421_Y426C] was tested. Which phosphorylation enrichment did it give?
The phosphorylation enrichment was 0.492.

With ISIFHCAKGQP [MPZ_Y82_Y82C] as the sequence, how does the phosphorylation enrichment read?
Its phosphorylation enrichment is 0.602.

NFGTNYRVGSS [CPO_Y278_K273N_YF] was tested. Which phosphorylation enrichment did it give?
The phosphorylation enrichment was 0.43.

With GACGGYCSVLG [RAB18_Y202] as the sequence, how does the phosphorylation enrichment read?
The phosphorylation enrichment was 0.473.

With PLFKIYVAELI [MRPL28_Y230] as the sequence, how does the phosphorylation enrichment read?
The phosphorylation enrichment was 0.658.

How did the phosphorylation enrichment turn out when DKATEYIQYVR [MAX_Y70_M74V] was run?
The phosphorylation enrichment was 0.535.

How did the phosphorylation enrichment turn out when DPHKIFEFVNS [IRF3_Y107_Y107F] was run?
The phosphorylation enrichment was 0.606.

With LERYIYNPEEF [HLA-DPB1_Y59_R61P] as the sequence, how does the phosphorylation enrichment read?
The phosphorylation enrichment was 2.16.

With RVLKLYGCSPS [ASTL_Y279] as the sequence, how does the phosphorylation enrichment read?
Its phosphorylation enrichment is 0.728.
